Test system: recombinant human MAT II β subunit protein with N-terminal poly-His tag, expressed in E. coli from pQE-30 (Clone 5)

With “recombinant human MAT II α2 subunit expressed in E. coli from the pQE-30 vector” the “Km (L-Met)” value was “the cloned protein lowered the Km (L-Met) of the recombinant human MAT II α2 subunit from 80 µM to 34 µM”, the “Km for L-Met in the presence of the MAT II β subunit” value was “another kinetic form with a Km for L-Met of 32-34 µM was also apparent, in each case” and the “Km of MAT for L-methionine” value was “This association changed the kinetic properties of the enzyme and lowered the Km of MAT for L-methionine”.
